Results on 19 molecules are retold here after patent US20180155451A1 (published 2018).

Substitutions are numbered along the chain they refer to.

One experiment concerns the target T1, FcγRIa (human, UniProt P12314 16-292).
T1 construct: extracellular domain; also called FcgRI; CD64; not shown: C-terminal His tag
In words: SPR (Biacore), antibody captured on antigen peptide chip, FcγRIa as analyte; relative binding amount. The procedure:
(§1) Analysis of interaction between objective antibody and the FcγR was carried out using Biacore T100 (GE Healthcare). HBS-EP+ (GE Healthcare) was used as the running buffer, and the measurement temperature was set to 25° C. Chips produced by immobilizing the antigen peptide by the amine coupling method to a Series S Sencor Chip CM5 (GE Healthcare), or alternatively, chips produced by allowing preliminarily biotinylated antigen peptides to interact with and immobilize onto a Series S Sensor Chip SA (certified) (GE Healthcare) were used. Antibodies of interest were captured onto an antigen peptide-immobilized chip, and allowed to interact to each FcγR diluted with running buffer. To regenerate and repeatedly use the chip, the antibodies captured on the chip were washed off by reacting 10 mM glycine-HCl, pH 1.5.
In general terms: SPR reads the build-up and loss of mass on a sensor chip optically.

In experiment [1] the target is T2, FcγRIIa H (FcγRIIa type H, His at position 131), extracellular domain with C-terminal His tag (human, UniProt P12318 34-217).
T2 construct: extracellular domain; Expressed in FreeStyle293 cells; analyte in the Biacore assay; also called FcgRIIa H; 2aH; not shown: His tag at the C terminus
T2 sequence (looked up): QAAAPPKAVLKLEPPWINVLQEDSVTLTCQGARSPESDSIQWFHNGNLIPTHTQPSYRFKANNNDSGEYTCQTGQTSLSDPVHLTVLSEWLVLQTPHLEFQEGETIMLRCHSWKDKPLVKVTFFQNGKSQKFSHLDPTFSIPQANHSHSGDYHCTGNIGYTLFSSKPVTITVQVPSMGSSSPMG
The experiment is described as follows: SPR Biacore; He/Con_2aH divided by He/Con_2b (reference: FcgRIIb).

Experiment [2] has as its target T2, FcγRIIa H (FcγRIIa type H, His at …). The experiment is described as follows: SPR Biacore, captured antibody, FcgR analyte; GpH7-A5/GpH7-B3/GpL16-k0 = 100.
Experiment [3] has as its target T3, FcγRIIa R (FcγRIIa, allotype R, Arg at position 131), extracellular domain with C-terminal His tag (human, UniProt P12318 34-217).
T3 construct: extracellular domain; soluble receptor used as Biacore analyte; also called 2aR; FcgRIIa R
T3 sequence (looked up): T2 sequence (looked up) with H134R
In words: Biacore SPR; He/Con_2aR divided by He/Con_2b (FcγRIIb). The procedure: (§2) The heterodimerized antibodies He Abs in which one of the H chains was introduced with an alteration were assayed for their binding activities to each activating FcγR and inhibitory FcγR according to the method described in Example 4. […] The activating FcγRs in FIGS. 26, 27, 28, and 29 are FcγRIa, FcγRIIa (R), FcγRIIa (H), and FcγRIIIa, respectively.
as §1

Experiment [4] addresses T3, FcγRIIa R (FcγRIIa, allotype R, Arg at …). The experiment is described as follows: Biacore SPR; binding relative to GpH7-A5/GpH7-B3/GpL16-k0 (=100). The procedure:
as §2, §1

T1 sequence (P12314 16-292): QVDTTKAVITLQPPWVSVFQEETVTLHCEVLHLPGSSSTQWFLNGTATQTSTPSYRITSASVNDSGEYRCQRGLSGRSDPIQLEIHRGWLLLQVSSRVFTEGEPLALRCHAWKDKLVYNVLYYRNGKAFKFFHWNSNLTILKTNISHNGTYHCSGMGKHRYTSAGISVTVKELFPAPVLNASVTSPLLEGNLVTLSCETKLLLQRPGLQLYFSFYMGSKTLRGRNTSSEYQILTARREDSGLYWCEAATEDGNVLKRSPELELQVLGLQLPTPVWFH

B1: GpH7-A5/GpH7-B3 variant T335_16H/GpL16-k0 (antibody, human IgG1, kappa)
heavy 1: not shown
heavy 2: not shown
light: DIVMTQSPLSLPVTPGEPASISCQASESLVHSNRNTYLHWYLQKPGQSPQLLIYKVSNRFSGVPDRFSGSGSGTDFTLKISRVEAEDVGVYYCSQNTHVPPTFGQGTKVEIERTVAAPSVFIFPPSDEQLKSGTASVVCLLNNFYPREAKVQWKVDNALQSGNSQESVTEQDSKDSTYSLSSTLTLSKADYEKHKVYACEVTHQGLSSPVTKSFNRGEC
notes: heterodimerized IgG1; mutation in one H chain only; also called He Ab
Take B1: the He/Con_1a with FcγRIa is 106 % of control (GpH7-A5/GpH7-B3/GpL16-k0 = 100).

B2: GpH7-A5/GpH7-B3 variant T335_18N/GpL16-k0 (antibody, human IgG1, kappa)
heavy 1: not shown
heavy 2: not shown
light: B1 light
notes: as for B1
In the case of B2, in the experiment with FcγRIa, the He/Con_1a is 106 % of control (GpH7-A5/GpH7-B3/GpL16-k0 = 100).

B3: GpH7-A5/GpH7-B3 variant Y296_12R/GpL16-k0 (antibody, human IgG1, kappa)
heavy 1: not shown
heavy 2: not shown
light: B1 light
notes: as for B1
For B3, in the experiment with FcγRIa, the He/Con_1a is 106 % of control (GpH7-A5/GpH7-B3/GpL16-k0 = 100).

B4: GpH7-A5/GpH7-B3 variant T335_20W/GpL16-k0 (antibody, human IgG1, kappa)
heavy 1: not shown
heavy 2: not shown
light: B1 light
notes: as for B1
In the case of B4, the He/Con_1a with FcγRIa is 106 % of control (GpH7-A5/GpH7-B3/GpL16-k0 = 100).

B5: GpH7-A5/GpH7-B3 variant Y296_11K/GpL16-k0 (antibody, human IgG1, kappa)
heavy 1: not shown
heavy 2: not shown
light: B1 light
notes: as for B1
As to B5, in the experiment with FcγRIa, the He/Con_1a is 105 % of control (GpH7-A5/GpH7-B3/GpL16-k0 = 100).

B6: GpH7-B3 variant Y300_19Q/GpL16-k0 (antibody, human IgG1, kappa)
heavy: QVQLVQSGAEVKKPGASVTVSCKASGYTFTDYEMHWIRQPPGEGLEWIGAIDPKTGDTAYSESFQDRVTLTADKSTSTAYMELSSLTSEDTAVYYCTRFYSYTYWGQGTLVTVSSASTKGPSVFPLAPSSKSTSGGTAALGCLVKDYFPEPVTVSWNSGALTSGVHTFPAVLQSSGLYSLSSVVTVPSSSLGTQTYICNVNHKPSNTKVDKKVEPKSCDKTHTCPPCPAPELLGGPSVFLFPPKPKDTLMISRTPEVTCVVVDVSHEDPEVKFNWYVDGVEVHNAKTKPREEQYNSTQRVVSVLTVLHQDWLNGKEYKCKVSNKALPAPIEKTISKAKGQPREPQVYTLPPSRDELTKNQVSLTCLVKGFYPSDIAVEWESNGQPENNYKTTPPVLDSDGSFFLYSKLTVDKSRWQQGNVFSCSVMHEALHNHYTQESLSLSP
light: B1 light
notes: homodimerized IgG1; mutation in both H chains; also called Ho Ab
As for B6, the Ho/Con_1a with FcγRIa is 110 % of control (GpH7-B3/GpL16-k0 = 100).

B7: GpH7-A5/GpH7-B3 variant L328_12R/GpL16-k0 (antibody, human IgG1, kappa)
heavy 1: not shown
heavy 2: not shown
light: B1 light
notes: He Ab; IgG1; mutation in one H chain only; also called He Ab
With B7, in experiment [1], the “He_2aH/2b (IIaH/IIb)” value came out at 4.6. Moreover, the He/Con_2aH in experiment [2] was 42.5 % of HeCon Ab.

B8: GpH7-A5/GpH7-B3 variant T335_19Q/GpL16-k0 (antibody, human IgG1, kappa)
heavy 1: not shown
heavy 2: not shown
light: B1 light
notes: as for B1
Regarding B8, in the experiment with FcγRIa, the He/Con_1a is 105 % of control (GpH7-A5/GpH7-B3/GpL16-k0 = 100).

B9: GpH7-A5/GpH7-B3 variant Y296_14T/GpL16-k0 (antibody, human IgG1, kappa)
heavy 1: not shown
heavy 2: not shown
light: B1 light
notes: as for B1
For the molecule B9, the He/Con_1a with FcγRIa was 105 % of control (GpH7-A5/GpH7-B3/GpL16-k0 = 100).

B10: GpH7-A5/GpH7-B3 variant Y300_06M/GpL16-k0 (antibody, human IgG1, kappa)
heavy 1: not shown
heavy 2: not shown
light: B1 light
notes: as for B1
For the molecule B10, in the experiment with FcγRIa, the He/Con_1a was 112 % of control (GpH7-A5/GpH7-B3/GpL16-k0 = 100).

B11: GpH7-A5/GpH7-B3 variant Y296_13S/GpL16-k0 (antibody, human IgG1, kappa)
heavy 1: not shown
heavy 2: not shown
light: B1 light
notes: as for B1
With B11, the He/Con_1a with FcγRIa was 105 % of control (GpH7-A5/GpH7-B3/GpL16-k0 = 100).

B12: GpH7-A5/GpH7-B3 variant Y296_18N/GpL16-k0 (antibody, human IgG1, kappa)
heavy 1: not shown
heavy 2: not shown
light: B1 light
notes: as for B1
B12: in the experiment with FcγRIa, the He/Con_1a is 106 % of control (GpH7-A5/GpH7-B3/GpL16-k0 = 100).

B13: GpH7-B3 variant Y300_13S/GpL16-k0 (antibody, human IgG1, kappa)
heavy: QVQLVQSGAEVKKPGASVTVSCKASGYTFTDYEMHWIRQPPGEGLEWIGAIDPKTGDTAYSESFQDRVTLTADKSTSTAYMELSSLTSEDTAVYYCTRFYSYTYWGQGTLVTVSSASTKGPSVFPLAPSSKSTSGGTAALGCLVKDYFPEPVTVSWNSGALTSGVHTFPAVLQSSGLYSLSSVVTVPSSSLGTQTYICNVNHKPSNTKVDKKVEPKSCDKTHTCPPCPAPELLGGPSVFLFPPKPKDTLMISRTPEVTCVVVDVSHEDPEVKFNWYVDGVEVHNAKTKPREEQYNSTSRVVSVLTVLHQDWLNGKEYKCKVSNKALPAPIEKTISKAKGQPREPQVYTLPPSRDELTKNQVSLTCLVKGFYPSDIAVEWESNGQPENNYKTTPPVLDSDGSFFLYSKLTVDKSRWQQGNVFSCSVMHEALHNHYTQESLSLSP
light: B1 light
notes: as for B6
As to B13, the Ho/Con_1a in the experiment with FcγRIa is 110 % of control (GpH7-B3/GpL16-k0 = 100).

B14: heterodimerized antibody GpH7-A5/GpH7-B3 variant L328_11K/GpL16-k0 (antibody, human IgG1, kappa)
heavy 1: not shown
heavy 2: not shown
light: B1 light
notes: He Ab: anti-glypican-3 IgG1, alteration in one H chain only; also called He Ab
On to B14, for which the “IIaR/IIb (He_2aR/2b)” value in experiment [3] turned out to be 0.33. Further, the “He/Con_2aR (IIaR binding)” value in experiment [4] was 2.5 % of control.

B15: heterodimerized antibody GpH7-A5/GpH7-B3 variant L328_12R/GpL16-k0 (antibody, human IgG1, kappa)
heavy 1: not shown
heavy 2: not shown
light: B1 light
notes: as for B14
Take B15: the “IIaR/IIb (He_2aR/2b)” value in experiment [3] was determined as 0.54. Besides, the “He/Con_2aR (IIaR binding)” value in experiment [4] is 5 % of control.

B16: GpH7-A5/GpH7-B3 variant Y300_10E/GpL16-k0 (antibody, human IgG1, kappa)
heavy 1: not shown
heavy 2: not shown
light: B1 light
notes: as for B1
Turning to B16, in the experiment with FcγRIa, the He/Con_1a was 114 % of control (GpH7-A5/GpH7-B3/GpL16-k0 = 100).

B17: GpH7-A5/GpH7-B3 variant Y300_02A/GpL16-k0 (antibody, human IgG1, kappa)
heavy 1: not shown
heavy 2: not shown
light: B1 light
notes: as for B1
As to B17, the He/Con_1a with FcγRIa is 112 % of control (GpH7-A5/GpH7-B3/GpL16-k0 = 100).

B18: GpH7-A5/GpH7-B3 variant Y300_08L/GpL16-k0 (antibody, human IgG1, kappa)
heavy 1: not shown
heavy 2: not shown
light: B1 light
notes: as for B1
On to B18, for which, in the experiment with FcγRIa, the He/Con_1a was 113 % of control (GpH7-A5/GpH7-B3/GpL16-k0 = 100).

B19: GpH7-A5/GpH7-B3 variant Y300_13S/GpL16-k0 (antibody, human IgG1, kappa)
heavy 1: not shown
heavy 2: not shown
light: B1 light
notes: as for B1
As to B19, the He/Con_1a in the experiment with FcγRIa is 111 % of control (GpH7-A5/GpH7-B3/GpL16-k0 = 100).
